Consider one molecule from PMC5671938, “Multimerin-2 is a ligand for group 14 family C-type lectins CLEC14A, CD93 and CD248 spanning the endothelial pericyte interface” (Oncogene, 2017).

In the experiment the target is T1, recombinant CLEC14A extracellular domain with an Fc tag (CLEC14A-ECD-Fc) (human, UniProt Q86T13 22-397).
T1 construct: CLEC14A, human, extracellular domain; Human IgG Fc alone served as the control for the Fc tag; also called hCLEC14A-ECD-Fc; CLEC14A-Fc
T1 sequence (looked up): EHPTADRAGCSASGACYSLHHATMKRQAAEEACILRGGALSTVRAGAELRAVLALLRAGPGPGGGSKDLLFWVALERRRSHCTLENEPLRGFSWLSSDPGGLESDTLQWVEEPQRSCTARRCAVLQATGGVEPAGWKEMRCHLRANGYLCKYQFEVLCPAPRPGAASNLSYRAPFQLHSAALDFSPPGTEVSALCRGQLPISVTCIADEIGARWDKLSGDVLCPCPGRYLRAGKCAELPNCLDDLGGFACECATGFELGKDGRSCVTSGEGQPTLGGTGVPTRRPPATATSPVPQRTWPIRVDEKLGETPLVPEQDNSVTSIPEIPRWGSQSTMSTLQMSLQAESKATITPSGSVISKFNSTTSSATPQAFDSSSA
As to the kind of experiment: flow cytometry on cells; blocking: hCLEC14A-ECD-Fc incubated with 2 x molar excess of MMRN2^495-674 or MMRN2^495-603 for 1 h at 4 °C, then used to stain the HUVEC surface; anti-hFc-FITC. To be noted: both partners purified. On the technique in general: In flow cytometry, cells or beads pass a laser one at a time.

B1: MMRN2^495-674 expressed and purified from E. coli (blocking experiments) (domain or fragment, human, UniProt Q9H8L6 495-674, looked up)
chain: QKLYLDLDVIREGQRDATRALEETQVSLDERRQLDGSSLQALQNAVDAVSLAVDAHKAEGERARAATSRLRSQVQALDDEVGALKAAAAEARHEVRQLHSAFAALLEDALRHEAVLAALFGEEVLEEMSEQTPGPLPLSYEQIRVALQDAASGLQEQALGWDELAARVTALEQASEPPRP
notes: codon optimized synthetic DNA in pET23a between NdeI and NotI; The fragment was made 'with His tag or avitag'; also called MMRN2 peptide; source: E. coli BL21-DE3 pLysS, purified (Nickel-NTA, size exclusion chromatography), endotoxin removed
As for B1, the binding result is listed as “binds”.
